B1: HDV Ribozyme (parent)
chain: GGCCGGCAUGGUCCCAGCCUCCUCGCUGGCGCCGGCUGGGCAACAUUCCGAGGGGACCGUCCCCUCGGUAAUGGCGAAUGGGACCCA

Variants of: B1
Experiment: self-cleavage, relative activity (ratio to wild type); higher = more cleavage; co-transcriptional

Variant | self-cleavage
C41G A83U | 0.77
G31U C49A | 0.451
G5C C30A | 0
U37C C44A | 0.499
G11C C24U | 0.219
G2A A42G | 0.0302
G2A A42C | 0.0432
A45U C64U | 0.764
C14U C48A | 0.928
G28A A78U | 0.0308
C44U C49G | 0.935
A8G G39U | 0.54
U37A C58U | 0.405
G38U C41U | 0.623
C7G G81A | 0.0594
G6U A71G | 0.399
A8U A45C | 0.166
U9A G76C | 1.07
G2U A70G | 0.0715
C18G G53U | 0.332
C48U G50C | 0.965
G55U C66U | 0.973
C32U A78C | 0.177
C58U C64A | 0.867

Variant | self-cleavage
G52C C66G | 0.672
U37C C58G | 0.872
G54C G82C | 0.397
C57U G73A | 0.891
G38C C48A | 0.104
G17U G25U | 0.185
U23A C30A | 0.466
G35U C57A | 0.517
G74U A87G | 0.473
C36U G76C | 0.909
G55U A78U | 0.224
G5U G40U | 0.155
C14U A70U | 1.08
U23C G59U | 0.975
C21U C41G | 0.432
G2U U37G | 0.0422
G5C C66U | 0.106
C30A A43G | 0.0739
U20A U69C | 0
A16U G38C | 0
C44G A87G | 0.641
C22G A56C | 0
C19G C41A | 0.157
G10A G17C | 0.341

Variant | self-cleavage
C26G A71C | 0.85
G5A U60C | 0.353
G40U A42C | 0.671
G55A C85G | 0.962
C14A C49G | 0.101
G25A A43G | 0.35
G38U G54A | 0.227
C36G A43C | 0.166
C4G U27A | 0.222
U60A G73A | 0.751
C26U C58U | 1.16
C30A C33U | 0.15
G31A U37C | 0.366
G2C | 0.0584
G59A C61G | 1.07
C30G G55C | 0.111
C4G G40C | 0.128
C18A G39U | 0.0369
G17U C36A | 0.0665
C7G C15U | 0.0978
A16G C19U | 0.178
C24A U69A | 0.635
U20A A78C | 0.107
C63U U69G | 0.875

Variant | self-cleavage
G50C G76A | 0.915
C7U A51G | 0.965
G35C G68C | 0.356
G68A A71U | 0.867
A70G G73U | 0.138
C26U C63U | 0.943
C4G U72G | 0.0519
C32U G50C | 0.764
G11C C33A | 0.0346
U65C A71U | 0.812
G40A C62U | 0.853
G40A C62A | 0.95
G31U G74A | 0.151
C24G C62G | 0.0415
G38U U69G | 0.272
G1C C26A | 0.166
G6U G81U | 0.154
G50U C57G | 0.986
G40C C75G | 0.166
C62U C64A | 0.845
G10C G74A | 0.119
A71G A83G | 1.09
U12C C15U | 0.147
G6U G82C | 0.17

Variant | self-cleavage
U12C U20C | 0
C22A C58A | 0.203
C24G G73A | 0.151
C36G C75G | 0.0773
C15A U65C | 0.519
C4A C57A | 0.541
G11A C21G | 0.04
C49A G54C | 0.843
C58A U60C | 1.17
C75U C84G | 0.136
G6A A42U | 0.283
G28U U47G | 0.095
G38C G59U | 0.233
G6U U9A | 0.623
C33G G38C | 0
G39C G73A | 0.0339
C14U A16C | 1.07
C19A C36A | 0.119
U12C G67U | 0.38
G31A G54U | 0.197
A45C A87U | 0.531
U9A G73A | 0.425
U9G A87U | 0.853
G1A G10A | 0.151

Variant | self-cleavage
C33U C44U | 0.543
C44U G67A | 0.82
C41U G67U | 0.604
A45G U47A | 1.13
G2A G34U | 0.0449
G11A U27G | 0.359
C44U G50C | 0.437
G1A U65C | 0.0875
U47G G68U | 1.01
U69C U72G | 0.529
C14G G54C | 0.277
G50U U69G | 0.95
C22A C85A | 0.378
C64U G76U | 1.15
C3G C41G | 0.241
U12G C18G | 0
G11C G52A | 0.232
C15U C18G | 0.0594
C36A A78U | 0
G1U G28C | 0.185
G54U C63A | 0.901
U20C C33A | 0.0665
G2C A16G | 0.131
G29A G68C | 0.111

Variant | self-cleavage
C13A C14A | 0.128
A42G C64U | 0.45
C3A A51G | 0.444
G29U C48A | 0.117
G5C A77G | 0.0475
C41A G80A | 0.389
C32A G55U | 0.219
G17A G59U | 0.852
C58A G76C | 1.1
G5U A70C | 0.415
G38C C44G | 0.222
C15U C57U | 0.864
U46G G81A | 0.222
C33U A51C | 1.3
C58U C62A | 0.969
G35U A78G | 0.0723
A16G G68C | 1.06
C49G C64G | 0.308
C3U C22A | 0.161
G50C C61U | 0.749
C18U U37G | 0.128
C30A C64G | 0.485
G31C G50A | 0.343
U47G G50C | 0.831

Variant | self-cleavage
U46G U60A | 0.453
C7U C63A | 0.751
A8G U12C | 0.151
G55A U72A | 0.917
C24G G50C | 0.0755
G5U C66A | 0.609
G6U C14G | 0.166
C18U U23G | 0.383
A8U C22U | 0.598
G39C U46A | 0.19
C18A G59A | 0.228
G25U U46C | 0
A51G C66G | 0.989
C63G C86G | 0.95
U9C U69G | 1.22
G2U A8U | 0.134
G6C C61G | 0.222
G25C G76A | 0.0875
G1C C4G | 0
G5A G67C | 0.162
C30G U69C | 0.18
C21U C85A | 0.366
U9G G11U | 0.532
G25U C32G | 0.0222

Variant | self-cleavage
C7A G34U | 0
A42U U60A | 0.665
C26G A77G | 0.929
A8G C13A | 0.175
C36U G82U | 0.234
U46A C48U | 0.739
C18U G52U | 0.594
C14A C33U | 0.587
G59C A70C | 1.07
G28C G29U | 0
G17U G73C | 0.145
C58G A71U | 0.779
A56G A71C | 0.534
A43U A51C | 0.525
C4G C63A | 0.177
G29A C58U | 0.197
U20A A83C | 0
C66U A77G | 0.489
C62A G67C | 0.78
C4U U23G | 0.302
C44G U65A | 0.443
C24A C86G | 0.724
G28U A77C | 0.0475
G39U U72A | 0.13

Variant | self-cleavage
G39U A45C | 0.196
C19A G67C | 0.0615
U12G C24U | 0.511
A16G U27G | 0.594
C33U U69C | 0.956
C4A G76U | 0.554
U46C G53C | 0.739
G55C C75G | 0.208
C33A C86A | 0.277
C3A C32U | 0.119
C18G C30G | 0.222
C48U A71U | 0.585
G11A G55C | 0.396
C4G G80C | 0.0906
G31A C84A | 0.326
U47A G67U | 1.14
C7G G31U | 0.745
C33A U65G | 0.244
G25A U79G | 0
U9G U79C | 0.748
C3A C30A | 0.0393
C15A A87G | 0.776
G11U C30A | 0.128
C66A G73C | 0.277

Variant | self-cleavage
C66A G73A | 0.63
U9A C30G | 0.138
G55A G67C | 0.942
C24U C66U | 0.629
G67C A70U | 0.851
C62G C84G | 0.482
C21A G82A | 0.0594
C58G G80U | 0.0903
A16U C62U | 1.04
C26A G34U | 0.683
G54U A77C | 0.415
C21G C22A | 0.0396
G17U C57G | 0.464
G38C G80C | 0.145
A8C C84A | 0.751
C48G C61U | 0.876
A77U A87U | 0.785
G2C U69C | 0.175
G38A G67C | 0.113
G35A U72A | 0.208
C18G U72C | 0
U47A C66A | 0.847
C14A C57G | 0.72
C85A C86U | 1.05

Variant | self-cleavage
C24A U46A | 0.213
C33A U69G | 0.287
U9A G35A | 0.665
A16C C41G | 0.104
G29U A78C | 0
G39A U69C | 0.609
U47C C64U | 0.692
A56U G82C | 0.172
U9G G55U | 1.05
G53C C58A | 1.06
C26A A83U | 0.796
G35A C63U | 0.91
A8G G80U | 0.173
C13A G50U | 0.282
G53A G59C | 0.872
G11C C64U | 0.269
C22U A71U | 0.587
C75A G80A | 0.12
G40C C62A | 0.237
G25U U37G | 0.0489
C19U G34U | 0.0755
C14G C41G | 0.525
A43C A45C | 0.415
C19U A83U | 0.148

Variant | self-cleavage
G6A C22A | 0.208
C14G G76U | 0.985
A51C G73C | 0.293
G53A A78U | 0.277
C26G G59A | 0.903
G28U U37C | 0.141
C19U U69G | 0.0692
U37A C48G | 0.148
A45C C49U | 0.831
G10A C41G | 0.68
C22G C58U | 0.172
U69A A77U | 0.591
C75G C85A | 0.208
G29A C63U | 0.226
C4G A71C | 0.192
G5U U9A | 0.578
A56G G81C | 0.198
U27C G39U | 0.467
C7U G35A | 0.109
C32U C33U | 0.166
U27C C58A | 0.458
C32A U69G | 0.271
C14A U20G | 0
C15A A70U | 0.723

Variant | self-cleavage
G38U C75U | 0.163
U20C C44U | 0
C63A C85U | 0.911
G53U C86U | 1.14
A43G C48A | 0.81
G11A C62A | 0.352
C24A G67A | 0.802
G73U A77C | 0.0898
G11U G40A | 0.387
C7G U23G | 0.217
G28A C41A | 0.13
C48A C58G | 1.12
C22U A45U | 0.325
U27G C62A | 1.09
G5C U65G | 0.0978
C36A C41U | 0.171
C4A U47C | 0.293
G6A G11U | 0.095
G10A A42G | 0.251
C41A A56U | 0.89
U9G U27A | 0.437
G53U U69A | 0.969

— the RNAGym collection of RNA variant scans (doi:10.7554/elife.80360)
